Here are results for one substance from doi:10.1101/2023.06.15.545061.

This test has as its target biotinylated 10-mer C-terminal PBM peptide of DGKζ (human) (UniProt Q13574).

biotinylated 10-mer C-terminal PBM peptide of DGKζ (human), sequence (Q13574 whole entry, looked up, tested part not stated): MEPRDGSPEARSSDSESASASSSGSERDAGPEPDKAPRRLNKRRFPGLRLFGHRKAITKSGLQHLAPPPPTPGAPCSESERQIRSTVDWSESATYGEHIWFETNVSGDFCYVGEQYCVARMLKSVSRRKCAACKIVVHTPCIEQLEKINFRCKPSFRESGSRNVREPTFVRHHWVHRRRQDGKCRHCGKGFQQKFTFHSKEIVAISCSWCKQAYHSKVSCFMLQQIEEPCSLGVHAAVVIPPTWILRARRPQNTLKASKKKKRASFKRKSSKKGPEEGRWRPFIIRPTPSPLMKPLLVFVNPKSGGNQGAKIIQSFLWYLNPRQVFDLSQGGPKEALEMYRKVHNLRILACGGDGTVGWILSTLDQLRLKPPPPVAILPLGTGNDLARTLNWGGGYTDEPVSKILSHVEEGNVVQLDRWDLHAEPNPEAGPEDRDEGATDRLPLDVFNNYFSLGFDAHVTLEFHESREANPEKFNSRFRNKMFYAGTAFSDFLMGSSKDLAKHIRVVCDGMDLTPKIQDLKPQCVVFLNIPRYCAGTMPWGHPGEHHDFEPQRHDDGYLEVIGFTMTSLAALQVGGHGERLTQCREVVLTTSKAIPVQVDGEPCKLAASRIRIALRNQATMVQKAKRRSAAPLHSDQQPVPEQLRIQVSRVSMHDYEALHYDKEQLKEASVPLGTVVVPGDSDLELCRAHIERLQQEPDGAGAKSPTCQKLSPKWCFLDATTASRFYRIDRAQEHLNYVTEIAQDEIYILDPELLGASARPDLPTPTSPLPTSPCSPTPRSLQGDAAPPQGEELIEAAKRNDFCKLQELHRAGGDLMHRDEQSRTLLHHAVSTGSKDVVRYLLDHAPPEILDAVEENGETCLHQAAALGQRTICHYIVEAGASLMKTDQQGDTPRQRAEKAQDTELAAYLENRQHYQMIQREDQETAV

The substance SCRIB registered a dissociation constant (Kd) of 24 µM.
